Like-named read-outs stand apart in the source and are kept apart here. One block for each binder: values may come before it.
Assays:
[1] = biological target: T1, human TSLP (human, UniProt Q969D9 29-159); assay: ELISA, biotin labeled full length TSLP on streptavidin plate; full length isoform TSLP, not short isoform
T1 construct: used biotinylated in some assays; also called hTSLP; recombinant human TSLP
Procedure: Binding of anti-TSLP antibodies to short form TSLP was determined using an ELISA method. […] A rabbit serum was used as a negative control. Briefly, a 96-well plate was coated with 100 μl of 1 μg/mL streptavidin overnight. The plates were washed with PBST, then 100 μl of 1 μg/ml biotin labeled short TSLP or long TSLP was added to the plates, incubated at 37° C. for 1 hour. […] After incubating the plates for an hour at 37° C., followed by washing with PBST for 6 times, the secondary antibody anti-human-Fc-HRP or anti-rabbit-Fc-AP was added to each well. After incubation for an hour under 37° C., the plate was washed for 3 times using PBST. TMB or pNPP was then added at 100 μL/well and incubated for 10-20 minutes at room temperature. 2 M H₂SO₄ or 3 M NaOH was used to stop the reaction. The ELISA results were then analyzed and the binding curves were generated by GraphPad Prism 5 software (GraphPad Software).

[2] = biological target: T1, human TSLP; assay: cell-based or functional assay
[3] = biological target: T1, human TSLP; assay: ELISA, plate coated with human TSLP, test antibodies as human IgG1
Procedure: (§1) ELISA Screening: Monoclonal scFv antibodies were selected and subjected to ligand binding assays. The first assay was designed to identify scFv antibodies that bound human TSLP and/or cynomolgus TSLP. Briefly, a 96-well plate was coated with human TSLP or cynomolgus TSLP in PBS at 0.1 μg/well and left overnight at 4° C. Before loading the scFv antibodies, the plates were washed with TBST, blocked for 1-2 hours at 37° C. using 5% milk and washed again with TBST. Each scFv sample was first diluted to 40 μg/mL, and 150 μL was added to the first row of wells. The 40 μg/mL scFv samples were then serially diluted at a 1:3 ratio and added to the remaining wells. After incubating for an hour at 37° C., followed by washing with TBST for 6 times, 100 μl of the secondary antibody (HRP labeled mouse anti-flag (1:2500)) was added to each well. After incubation for an hour under 37° C., the plate was washed for 3 times using TBST. TMB was then added at 100 μL/well and incubated for 10-20 minutes at 37° C. 2 M H₂SO₄ was used to stop the reaction. The ELISA results (OD405) were then analyzed and the binding curves were generated by PRISM.

[4] = biological target: T2, cynomolgus monkey TSLP (cynomolgus monkey, UniProt A0A7N9CAT7 29-159); assay: ELISA, plate coated with cynomolgus monkey TSLP, test antibodies as human IgG1
T2 construct: also called cynomolgus TSLP; recombinant cynomolgus monkey TSLP
Procedure: as §1

[5] = biological target: T2, cynomolgus monkey TSLP; assay: solution equilibrium titration, MSD electrochemiluminescence, IgG1
[6] = biological target: T1, human TSLP; assay: cell-based or functional assay; remark: listed apart in the source
[7] = biological target: T1, human TSLP; assay: cell-based or functional assay; remark: listed apart in the source
[8] = biological target: T3, TSLP-His (human, UniProt Q969D9 29-159, limits assumed); assay: HTRF competition: blocking of TSLP-his binding to HEK293-Flag-hTSLPR-IL7Ra cells, IgG1
T3 construct: also called his-tagged TSLP; not shown: His-tag

[9] = biological target: T4, human IL-7 (human, UniProt P13232 26-177); assay: ELISA on human IL-7
T4 construct: also called TSLP homologous protein IL-7
T4 sequence (looked up): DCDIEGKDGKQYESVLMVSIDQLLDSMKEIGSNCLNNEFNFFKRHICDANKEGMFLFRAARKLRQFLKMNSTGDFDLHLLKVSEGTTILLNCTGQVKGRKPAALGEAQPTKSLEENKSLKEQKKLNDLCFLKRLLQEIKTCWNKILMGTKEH

[10] = biological target: T1, human TSLP; assay: solution equilibrium titration, MSD electrochemiluminescence, IgG1
Procedure: Briefly, according to the manufacturer's instructions, the streptavidin MSD plates were blocked 30 mins at RT with PBS with 3% BSA (assay buffer). Serially diluted human TSLP with the concentration from 0 to 50 nM was equilibrated with the tested antibodies with the concentration of 10 pM overnight at RT, wells without antigen were used to determine Bmax values; wells containing only assay buffer were used to determine background. 50 μL of biotinylated human TSLP was coated at 0.2 μg/mL in assay buffer for 30 mins at RT on streptavidin MSD plates. After washing with PBST for 3 times, 50 μL of the equilibrated samples were transferred to those plates and incubated for 30 mins at RT. […] After washing the MSD Plate with PBST for 3 times, 150 μL of MSD read buffer was added to each well, electrochemiluminescence signals of the plate was detected using a Sector Imager 6000 (Meso Scale Discovery, Gaithersburg, MD, USA).

[11] = biological target: E. coli derived human TSLP (human, UniProt Q969D9 29-159, limits assumed); assay: cell-based or functional assay
[12] = biological target: T2, cynomolgus monkey TSLP; assay: ELISA, plate coated with cynomolgus monkey TSLP
[13] = biological target: T2, cynomolgus monkey TSLP; assay: solution equilibrium titration, MSD electrochemiluminescence
[14] = biological target: T1, human TSLP; assay: cell-based or functional assay; remark: listed apart in the source
[15] = biological target: T1, human TSLP; assay: ELISA, plate coated with human TSLP, test antibodies as human IgG1; remark: listed apart in the source
Procedure: as §1

[16] = biological target: T2, cynomolgus monkey TSLP; assay: ELISA, plate coated with cynomolgus monkey TSLP, test antibodies as human IgG1; remark: listed apart in the source
Procedure: as §1

[17] = biological target: T2, cynomolgus monkey TSLP; assay: as above; remark: listed apart in the source
Procedure: as §1

[18] = biological target: T1, human TSLP; assay: ELISA, plate coated with human TSLP, test antibodies as human IgG1; remark: listed apart in the source
Procedure: as §1

[19] = biological target: T1, human TSLP; assay: cell-based or functional assay; remark: listed apart in the source
[20] = biological target: T1, human TSLP; assay: ELISA, plate coated with human TSLP, test antibodies as human IgG1; remark: listed apart in the source
Procedure: as §1

[21] = biological target: T2, cynomolgus monkey TSLP; assay: ELISA, plate coated with cynomolgus monkey TSLP, test antibodies as human IgG1; remark: listed apart in the source
Procedure: as §1

T2 sequence (A0A7N9CAT7 entry or part of it): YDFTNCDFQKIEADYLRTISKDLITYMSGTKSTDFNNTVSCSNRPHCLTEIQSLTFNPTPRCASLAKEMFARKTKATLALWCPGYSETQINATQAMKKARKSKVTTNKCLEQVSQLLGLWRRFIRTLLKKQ

EC50 [1]: 0.0335 µg/mL | IC50, inhibition of human TSLP-induced Stat5 activation (Stat5-luciferase reporter, Ba/F3 cells with hTSLPR and hIL7Ra) [2]: 0.0193 µg/mL | EC50 (read off the curve) [3]: ~0.03 µg/mL | EC50 (read off the curve) [4]: ~0.5 µg/mL
B1: TSLP-01 (antibody, V domains shown)
VH: QVQLQESGPGLVKPSETLSLTCAVSGYSISSGYGWSWIRQPPGKGLEWIGYISYYGSISYNPSLKSRVTISRDTSKNQFSLKLSSVTAADTAVYYCARTNLLYFDSWGQGTLVTVSS
VL: EIVMTQSPATLSLSPGERATLSCRASQSVSNNLAWYQQKPGQAPRLLIYDASSRATGIPARFSGSGSGTDFTLTISSLEPEDFAVYYCQQYSDWPQYTFGQGTKVEIK
notes: also called parent antibody TSLP-01

Kd [5]: 0.0254 nM | IC50, inhibition of human TSLP induced TARC release from human PBMCs (TARC ELISA) [6]: 0.000758 µg/mL | IC50, inhibition of human TSLP-induced Stat5 activation (Stat5-luciferase reporter, Ba/F3 cells with hTSLPR and hIL7Ra) [2]: 0.00884 µg/mL | IC50, inhibition of TSLP induced proliferation of Ba/F3-TSLPR-IL7Ra cells (CellTiter-Glo) [7]: 0.0136 µg/mL | EC50 (read off the curve) [3]: ~0.04 µg/mL | IC50 [8]: 0.116 µg/mL | binding result [9]: no binding | EC50 (read off the curve) [4]: ~0.7 µg/mL | Kd [10]: 0.044 nM | IC50, inhibition of E. coli derived human TSLP induced Stat5 activation [11]: 0.00259 µg/mL
B2: TSLP-0107 (antibody, V domains shown)
VH: QVQLQESGPGLVKPSETLSLTCTVSGYSISSGYGWSWIRQPPGKGLEWIGYISYYGSISYNPSLKSRVTISVDTSKNQFSLKLSSVTAADTAVYYCARTNLLYFDSWGQGTLVTVSS
VL: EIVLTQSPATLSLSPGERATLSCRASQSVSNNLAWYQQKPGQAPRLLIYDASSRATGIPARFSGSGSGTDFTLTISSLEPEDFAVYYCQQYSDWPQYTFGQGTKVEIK
notes: also called TSLP-0107-IgG1

EC50 (read off the curve) [12]: ~0.5 µg/mL | Kd [13]: 0.0176 nM
B3: AMG157 (antibody, V domains shown)
VH: QMQLVESGGGVVQPGRSLRLSCAASGFTFRTYGMHWVRQAPGKGLEWVAVIWYDGSNKHYADSVKGRFTITRDNSKNTLNLQMNSLRAEDTAVYYCARAPQWELVHEAFDIWGQGTMVTVSS
VL: SYVLTQPPSVSVAPGQTARITCGGNNLGSKSVHWYQQKPGQAPVLVVYDDSDRPSWIPERFSGSNSGNTATLTISRGEAGDEADYYCQVWDSSSDHVVFGGGTKLTVLG

Kd [5]: 0.00447 nM | IC50, inhibition of human TSLP induced TARC release from human PBMCs (TARC ELISA) [6]: 0.000365 µg/mL | IC50, inhibition of human TSLP-induced Stat5 activation (Stat5-luciferase reporter, Ba/F3 cells with hTSLPR and hIL7Ra) [14]: 0.00257 µg/mL | IC50, inhibition of TSLP induced proliferation of Ba/F3-TSLPR-IL7Ra cells (CellTiter-Glo) [7]: 0.0131 µg/mL | IC50 [8]: 0.297 µg/mL | EC50 (read off the curve) [15]: ~0.08 µg/mL | EC50 (read off the curve) [16]: ~0.7 µg/mL | Kd [10]: 0.0211 nM
B4: TSLP-0202 (antibody, V domains shown)
VH: QVQLVQSGAEVKKPGSSVKVSCKASGFTFGSYGINWVRQAPGQGLEWMGVIVPLVGVTIYAEKFQGRVTITADESTSTAYMELSSLRSEDTAVYYCARGQEYFYWYFDLWGQGTLVTVSS
VL: QSALTQPPSASGSPGQSVTISCSGSSSDIGGYNRVSWYQQHPGKAPKLMIYDVSKRPSGVPDRFSGSKSGNTASLTVSGLQAEDEADYYCSSYAGTDTFILFGGGTKLTVL
notes: also called TSLP-0202-IgG1

IC50, inhibition of TSLP induced proliferation of Ba/F3-TSLPR-IL7Ra cells (CellTiter-Glo) [7]: 0.198 µg/mL | IC50 [8]: 0.494 µg/mL | EC50 (read off the curve) [17]: ~0.9 µg/mL | EC50 (read off the curve) [18]: ~0.08 µg/mL | IC50, inhibition of human TSLP-induced Stat5 activation (Stat5-luciferase reporter, Ba/F3 cells with hTSLPR and hIL7Ra) [19]: 0.0367 µg/mL
B5: TSLP-03 (antibody, V domains shown)
VH: EVQLVESGGGLVQPGGSLRLSCAASGFTFSNYDMTWVRQAPGKGLEWVSSITFASSYIYYADSVKGRFTISRDNAKNSLSLQMNSLRAEDTAVYYCTRGGGAYHGGSLDVWGQGVLVTVSS
VL: DIVMTQTPLSLSVTPGEPASISCRSSQSLLHINGYTYLHWYLQKPGQSPQLLIYLVSHRASGVPDRFSGSGSDTDFTLKISRVEAEDVGVYYCEQTLQTPYSFGGGTKVEIK
notes: also called parent antibody TSLP-03

EC50 (read off the curve) [18]: ~0.06 µg/mL
B6: TSLP-0302 (antibody, V domains shown)
VH: EVQLVESGGGLVQPGGSLRLSCAASGFTFSNYGMTWVRQAPGKGLEWVSSITFASSYIYYADSVKGRFTISRDNAKNSLSLQMNSLRAEDTAVYYCTRGGGAYYGGSLDVWGQGVLVTVSS
VL: DIVMTQTPLSLSVTPGEPASISCRSSQSLLHSYGYTYLHWYLQKPGQSPQLLIYLVSYRASGVPDRFSGSGSDTDFTLKISRVEAEDVGVYYCEQTLQTPYTFGGGTKVEIK

IC50, inhibition of TSLP induced proliferation of Ba/F3-TSLPR-IL7Ra cells (CellTiter-Glo) [7]: 0.15 µg/mL | EC50 (read off the curve) [20]: ~0.1 µg/mL | IC50, inhibition of human TSLP-induced Stat5 activation (Stat5-luciferase reporter, Ba/F3 cells with hTSLPR and hIL7Ra) [19]: 0.0364 µg/mL
B7: TSLP-04 (antibody, V domains shown)
V domain 1: QEQLVQSGDEVKKPGASVKVSCKSSGFTFGSYAISWVRQAPGQGLEWMGMLVPLLGVTNYAEKFQGRVTITADPSTTTTSMELSSLRSEDTAVYYCARGGSNYLYWYFDLWGPGTPITVSS
V domain 2: QSAPIQPRSVSGSPGQSVTISCTGTSSDIGGYNRISWYQQHPGKAPKLMIYDVSKRPSGVSDRFSGSKSGNTASLTISGLQAEDEADYYCSSYAGTDTFVLFGGGTQLTIV
notes: also called parent antibody TSLP-04

IC50, inhibition of TSLP induced proliferation of Ba/F3-TSLPR-IL7Ra cells (CellTiter-Glo) [7]: 0.0195 µg/mL | IC50 [8]: 0.333 µg/mL | EC50 (read off the curve) [20]: ~0.1 µg/mL | EC50 (read off the curve) [21]: ~2 µg/mL | IC50, inhibition of human TSLP-induced Stat5 activation (Stat5-luciferase reporter, Ba/F3 cells with hTSLPR and hIL7Ra) [19]: 0.0195 µg/mL
B8: TSLP-0401 (antibody, V domains shown)
V domain 1: QEQLVQSGDEVKKPGASVKVSCKSSGFTFGSYAISWVRQAPGQGLEWMGMIIPLLGVTDYAEKFQGRVTITADPSTTTTSMELSSLRSEDTAVYYCARGGTNYLYWYFDLWGPGTPITVSS
V domain 2: QSAPIQPRSVSGSPGQSVTISCTGTSSDIGGYNRVSWYQQHPGKAPKLMIYEVSKRPSGVSDRFSGSKSGNTASLTISGLQAEDEADYYCSAYAGTDTFVLFGGGTQLTIV
